Data reported in US20210040177A1 (IMUNEXUS, published 2021).
Read-outs that look alike come from different tables or passages of the source.

Key:
[1] = biological target: T1, B7-1-Fc (R&D Systems Cat #140-B1) (UniProt P33681 35-242); assay: SPR (Biacore X100); molecule captured on biotin-lysozyme, B7-1-Fc as analyte
T1 construct: Bought reagent; also called CD80; not shown: Fc part of the bought fusion
T1 sequence (looked up): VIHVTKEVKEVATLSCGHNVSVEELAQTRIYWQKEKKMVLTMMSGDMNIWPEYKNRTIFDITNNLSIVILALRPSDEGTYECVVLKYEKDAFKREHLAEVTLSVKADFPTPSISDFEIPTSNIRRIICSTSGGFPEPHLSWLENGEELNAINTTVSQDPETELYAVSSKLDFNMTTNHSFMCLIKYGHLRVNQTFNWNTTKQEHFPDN

[2] = biological target: T1, B7-1-Fc (R&D Systems Cat #140-B1); assay: as above; remark: listed apart in the source
[3] = biological target: T1, B7-1-Fc (R&D Systems Cat #140-B1); assay: BLItz bio-layer interferometry; D1.3 IgG held on immobilised lysozyme, B7-1-Fc added at Point 1, buffer at Point 2
Excerpt: At Point 2, B7-1-Fc was replaced with Buffer. […] At Point 2, B7-1-Fc was replaced with Buffer.

B1: D1.3 IgG-VLDx2 (HC) (bispecific antibody)
heavy: not shown
light: DIELTQSPASLSASVGETVTITCRASGNIHNYLAWYQQKQGKSPQLLVYYTTTLADGVPSRFSGSGSGTQYSLKINSLQPEDFGSYYCQHFWSTPRTFGGGTKLELKRTVAAPSVFIFPPSDEQLKSGTASVVCLLNNFYPREAKVQWKVDNALQSGNSQESVTEQDSKDSTYSLSSTLTLSKADYEKHKVYACEVTHQGLSSPVTKSFNRGEC
notes: unfused kappa light chain; also called bi-specific-D1.3 IgG-VLDx2 (HC)
Binder B1 has a Kd [1] of 5.44 nM, a koff [1] of 0.0028 s⁻¹ and a kon [1] of 516000 M⁻¹ s⁻¹.

B2: D1.3 Fab-VLDx1 (HC) (bispecific antibody)
heavy: EVKLQESGPGLVAPSQSLSITCTVSGFSLTGYGVNWVRQPPGKGLEWLGMIWGDGNTDYNSALKSRLSISKDNSKSQVFLKMNSLHTDDTARYYCARERDYRLDYWGQGTTVTVSSASTKGPSVFPLAPSSKSTSGGTAALGCLVKDYFPEPVTVSWNSGALTSGVHTFPAVLQSSGLYSLSSVVTVPSSSLGTQTYICNVNHKPSNTKVDKKVEPKSCSGGGGSGGGGSGGGGSGGGGSKAMHVAQPAVVLASSRGIASFVCEYASPGKYTEVRVTVLRQADSQVTEVCAATYMTGNELTFLDDSICTGTSSGNQVNLTIQGLRAMDTGLYICKVELMYPPPYYLGIGNGTQIYVIDPEPSPDSN
light: DIELTQSPASLSASVGETVTITCRASGNIHNYLAWYQQKQGKSPQLLVYYTTTLADGVPSRFSGSGSGTQYSLKINSLQPEDFGSYYCQHFWSTPRTFGGGTKLELKRTVAAPSVFIFPPSDEQLKSGTASVVCLLNNFYPREAKVQWKVDNALQSGNSQESVTEQDSKDSTYSLSSTLTLSKADYEKHKVYACEVTHQGLSSPVTKSFNRGEC
Binder B2 has a Kd [2] of 5.41 nM, a koff [2] of 0.00285 s⁻¹ and a kon [2] of 526000 M⁻¹ s⁻¹.

B3: D1.3 anti-lysozyme antibody [D1.3 IgG] (antibody, V domains shown)
VH: EVKLQESGPGLVAPSQSLSITCTVSGFSLTGYGVNWVRQPPGKGLEWLGMIWGDGNTDYNSALKSRLSISKDNSKSQVFLKMNSLHTDDTARYYCARERDYRLDYWGQGTTVTVSS
VL: DIELTQSPASLSASVGETVTITCRASGNIHNYLAWYQQKQGKSPQLLVYYTTTLADGVPSRFSGSGSGTQYSLKINSLQPEDFGSYYCQHFWSTPRTFGGGTKLELKR
notes: Full length IgG1 kappa, expressed in Expi293 cells; parent of all IgG-VLD fusions; also called D1.3 IgG alone (full length); D1.3 antibody
B3: no binding [3].

B4: D1.3 Fab-VLDx1 (LC) (bispecific antibody)
heavy: EVKLQESGPGLVAPSQSLSITCTVSGFSLTGYGVNWVRQPPGKGLEWLGMIWGDGNTDYNSALKSRLSISKDNSKSQVFLKMNSLHTDDTARYYCARERDYRLDYWGQGTTVTVSSASTKGPSVFPLAPSSKSTSGGTAALGCLVKDYFPEPVTVSWNSGALTSGVHTFPAVLQSSGLYSLSSVVTVPSSSLGTQTYICNVNHKPSNTKVDKRVEPKSCAAAGLGGHHHHHHGAAEQKLISEEDL
light: DIELTQSPASLSASVGETVTITCRASGNIHNYLAWYQQKQGKSPQLLVYYTTTLADGVPSRFSGSGSGTQYSLKINSLQPEDFGSYYCQHFWSTPRTFGGGTKLELKRTVAAPSVFIFPPSDEQLKSGTASVVCLLNNFYPREAKVQWKVDNALQSGNSQESVTEQDSKDSTYSLSSTLTLSKADYEKHKVYACEVTHQGLSSPVTKSFNRGECSGGGGSGGGGSGGGGSGGGGSKAMHVAQPAVVLASSRGIASFVCEYASPGKYTEVRVTVLRQADSQVTEVCAATYMTGNELTFLDDSICTGTSSGNQVNLTIQGLRAMDTGLYICKVELMYPPPYYLGIGNGTQIYVIDPEPSPDSN
notes: also called D1.3 VLDx1 (LC); D1.3 Fab-VLDx1 (CL)
B4 gave a Kd [2] of 13.6 nM, a koff [2] of 0.00296 s⁻¹ and a kon [2] of 218000 M⁻¹ s⁻¹.

B5: D1.3 IgG-VLDx4 (HC+LC) (bispecific antibody)
heavy: not shown
light: DIELTQSPASLSASVGETVTITCRASGNIHNYLAWYQQKQGKSPQLLVYYTTTLADGVPSRFSGSGSGTQYSLKINSLQPEDFGSYYCQHFWSTPRTFGGGTKLELKRTVAAPSVFIFPPSDEQLKSGTASVVCLLNNFYPREAKVQWKVDNALQSGNSQESVTEQDSKDSTYSLSSTLTLSKADYEKHKVYACEVTHQGLSSPVTKSFNRGECSGGGGSGGGGSGGGGSGGGGSKAMHVAQPAVVLASSRGIASFVCEYASPGKYTEVRVTVLRQADSQVTEVCAATYMTGNELTFLDDSICTGTSSGNQVNLTIQGLRAMDTGLYICKVELMYPPPYYLGIGNGTQIYVIDPEPSPDSN
notes: also called IgG Imx4 (HC+LC); IgG Imx4 (HCLC)
With B5 the Kd [1] was 5.47 nM, the koff [1] was 0.0029 s⁻¹ and the kon [1] was 530000 M⁻¹ s⁻¹.

B6: D1.3 Fab-VLDx2 (HC+LC) (bispecific antibody)
heavy: EVKLQESGPGLVAPSQSLSITCTVSGFSLTGYGVNWVRQPPGKGLEWLGMIWGDGNTDYNSALKSRLSISKDNSKSQVFLKMNSLHTDDTARYYCARERDYRLDYWGQGTTVTVSSASTKGPSVFPLAPSSKSTSGGTAALGCLVKDYFPEPVTVSWNSGALTSGVHTFPAVLQSSGLYSLSSVVTVPSSSLGTQTYICNVNHKPSNTKVDKKVEPKSCSGGGGSGGGGSGGGGSGGGGSKAMHVAQPAVVLASSRGIASFVCEYASPGKYTEVRVTVLRQADSQVTEVCAATYMTGNELTFLDDSICTGTSSGNQVNLTIQGLRAMDTGLYICKVELMYPPPYYLGIGNGTQIYVIDPEPSPDSN
light: DIELTQSPASLSASVGETVTITCRASGNIHNYLAWYQQKQGKSPQLLVYYTTTLADGVPSRFSGSGSGTQYSLKINSLQPEDFGSYYCQHFWSTPRTFGGGTKLELKRTVAAPSVFIFPPSDEQLKSGTASVVCLLNNFYPREAKVQWKVDNALQSGNSQESVTEQDSKDSTYSLSSTLTLSKADYEKHKVYACEVTHQGLSSPVTKSFNRGECSGGGGSGGGGSGGGGSGGGGSKAMHVAQPAVVLASSRGIASFVCEYASPGKYTEVRVTVLRQADSQVTEVCAATYMTGNELTFLDDSICTGTSSGNQVNLTIQGLRAMDTGLYICKVELMYPPPYYLGIGNGTQIYVIDPEPSPDSN
notes: also called D1.3 VLDx2 (HC+LC); D1.3 Fab-VLDx2 (LC+HC)
B6 showed a Kd [2] of 9.73 nM, a koff [2] of 0.00433 s⁻¹ and a kon [2] of 445000 M⁻¹ s⁻¹.

B7: D1.3 IgG-VLDx2 (LC) (bispecific antibody)
heavy: not shown
light: DIELTQSPASLSASVGETVTITCRASGNIHNYLAWYQQKQGKSPQLLVYYTTTLADGVPSRFSGSGSGTQYSLKINSLQPEDFGSYYCQHFWSTPRTFGGGTKLELKRTVAAPSVFIFPPSDEQLKSGTASVVCLLNNFYPREAKVQWKVDNALQSGNSQESVTEQDSKDSTYSLSSTLTLSKADYEKHKVYACEVTHQGLSSPVTKSFNRGECSGGGGSGGGGSGGGGSGGGGSKAMHVAQPAVVLASSRGIASFVCEYASPGKYTEVRVTVLRQADSQVTEVCAATYMTGNELTFLDDSICTGTSSGNQVNLTIQGLRAMDTGLYICKVELMYPPPYYLGIGNGTQIYVIDPEPSPDSN
notes: unfused heavy chain; also called D1.3 IgG-VDLx2 (LC); bi-specific-D1.3 IgG-VLDx2 (LC)
B7 showed a Kd [1] of 24.5 nM, a koff [1] of 0.004 s⁻¹ and a kon [1] of 163000 M⁻¹ s⁻¹.
